Assay results: patent publication US20230052369A1 (published 2023)

B1: v28696 (antibody, V domains shown)
VH: QVQLQESGPGLVKPSETLSLTCTVSGFSLISYGVHWIRQPPGKGLEWIGVIWSGGSTDYNPSLKSRVTISVDTSKNQFSLKLSSVTAADTAVYYCARNPLTATVMDYWGQGTLVTVSS
VL: DIQMTQSPSSLSASVGDRVTITCRASQNVGTNVAWYQQKPGKAPKALIYSASYRDSGVPSRFSGSGSGTDFTLTISSLQPEDFATYYCQQYNSYPLTFGGGTKVEIKR
B2: v20036 (antibody, V domains shown)
VH: QVQLQESGPGLVQPTQSLSITCTVSGFSLISYGVHWVRQSPGKGLEWLGVIWSGGSTDYNAAFISRLSISKDNSKSQVFFKMNSLQADDTAIYYCARNPLTATVMDYWGQGTSVTVSS
VL: DIVMTQSQKFMSTSVGDRVSVTCKASQNVGTNVAWYQQKPGQSPKALIYSASYRDSGVPDRFTGSGSGTDFTLTISNVQSEDLAEYLCQQYNSYPLTFGAGTKLELKR

Tests used:
[1] = molecular target: T1, purified human monomeric 4-1BB (UniProt Q07011 24-186); test: SPR; 25 °C, steady state affinity
T1 sequence (Q07011 other isoform, or with tags, fused parts or gaps): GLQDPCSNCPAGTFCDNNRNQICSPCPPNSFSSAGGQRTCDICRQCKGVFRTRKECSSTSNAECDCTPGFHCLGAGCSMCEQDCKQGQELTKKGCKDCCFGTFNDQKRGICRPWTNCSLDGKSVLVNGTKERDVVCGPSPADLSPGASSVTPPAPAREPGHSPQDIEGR

[2] = molecular target: T1, purified human monomeric 4-1BB; test: SPR; 25 °C

| Binder | Kd [1] [nM] | Kd [2] [nM] |
| --- | --- | --- |
| B1 | 687 |  |
| B2 |  | 256 |
